B1: Seq3 (ssDNA)
DNA: AGCGTCGGATACCACTACTATGCCGGTCGGGGGTTGGGGATCTCTCTTGGGGGAGGGTTATCATGGAGTTCGTGGTCAG
B2: Seq3-1 (ssDNA)
DNA: TGCCGGTCGGGGGTTGGGGATCTCTCTTGGGGGAGGGTTATCATGGAGTTCGTGGTCAG
B3: Seq3-2 (ssDNA)
DNA: AGCGTCGGATACCACTACTATGCCGGTCGGGGGTTGGGGATCTCTCTTGGGGGAGGGTT

Target: Glutathione S-transferase (GST) (UniProt P08515 1-218)
Experiment: bead fluorescence, confocal microscopy; 37 °C; BB: 20 mM HEPES pH 7.4, 120 mM NaCl, 5 mM KCl, 2 mM MgCl2; wash BB + 0.05% Tween 20; 37 °C, 40 min (section 2.1 gives another binding buffer: DPBS, 5 mM MgCl2)
Conditions: protein: recombinant, tags: biotinylated, on streptavidin agarose beads, chain copies: 2

Sequence of Glutathione S-transferase (GST) (P08515 whole entry): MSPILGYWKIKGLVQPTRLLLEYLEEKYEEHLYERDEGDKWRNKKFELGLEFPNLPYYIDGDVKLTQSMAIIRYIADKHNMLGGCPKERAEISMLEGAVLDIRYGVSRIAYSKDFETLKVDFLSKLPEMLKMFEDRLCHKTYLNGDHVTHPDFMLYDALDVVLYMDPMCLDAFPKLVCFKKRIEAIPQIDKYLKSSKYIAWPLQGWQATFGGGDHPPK

Binder	Kd (label: FAM (also called AF488), two small stem-loops with a large loop (Mfold)) [nM]	Kd (label: FAM) [nM]
B1	34 ± 5.6	–
B2	–	29.3 ± 4.8
B3	–	118 ± 21.7
TGCCGGTCGGGGGTTGGGGATCTCTCTTGGGGGAGGGTT (ssDNA) [Seq3-3]	–	268 ± 89.4

Reference: paper PMC11505714, “A Double-Stranded Aptamer for Highly Sensitive Fluorescent Detection of Glutathione S-Transferases”
